# Laboratory results from the supplement of paper PMC7125110.
# ± gives the standard error. Variants at the floor of the assay were thinned out.
# B1: glmS ribozyme (parent)
# chain: AUAAAAGCGCCAGAACUACAGAAAUGUAGUUGACGAGGAGGAGGUUUAUCGAAUUUUCGGCGGAUGCCUCCAAA
# Variants of: B1
# Assay: self-cleavage kobs at 10000 uM GlcN6P; higher = faster cleavage; RNA array
# Settings: with glucosamine-6-phosphate
# In short: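 Barcoded ribozyme variants, transcribed in situ by E. coli RNA polymerase on sequenced MiSeq chips, were followed via a hybridised Cy3 probe at 37 °C. Glucosamine-6-phosphate ranged from 40 μM to 10 mM in HEPES/KCl/Mg(OAc)2 buffer. kobs came from decay fits to per-tile medians, and kcat and KM from weighted Michaelis–Menten fits.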
row,Variant,self-cleavage kobs at 10000 uM GlcN6P
1,A48C G62U C67U C71G,< 1e-05 s⁻¹
2,U57C G62U,< 1e-05 s⁻¹
3,A52U C58G U65G,< 1e-05 s⁻¹
4,U56G C58U C67A,3.62e-05 ± 1.5e-05 s⁻¹
5,A48U A52C G60A A64C,< 1e-05 s⁻¹
6,U55G C68A C71U,2.99e-05 ± 1.4e-05 s⁻¹
7,A53U C70G C71G,2.8e-05 ± 1.2e-05 s⁻¹
8,A48C C61G C70G,< 1e-05 s⁻¹
9,A48U C67G,4.58e-05 ± 8.4e-06 s⁻¹
10,U49C C68A,< 1e-05 s⁻¹
11,U54G G66U C68U,0.000154 ± 3.1e-05 s⁻¹
12,U47A A53G U55A G66C,0.000375 ± 5.9e-05 s⁻¹
13,C50A G62C,< 1e-05 s⁻¹
14,A48U U56A C68U,7.52e-05 ± 1.8e-05 s⁻¹
15,U56C U57G G59U,< 1e-05 s⁻¹
16,A64C U65G,4.42e-05 ± 1.1e-05 s⁻¹
17,U54G C58A C71U,0.000213 ± 4.7e-05 s⁻¹
